PMC8234031, “Modular Assembly of Phosphite Dehydrogenase and Phenylacetone Monooxygenase for Tuning Cofactor Regeneration” (Biomolecules, 2021)

Key:
[1] = target: PTDHI (phosphite dehydrogenase with a C-terminal RIDD tag)
[2] = target: PTDHA (phosphite dehydrogenase with a C-terminal RIAD tag); assay: SEC; each purified tagged protein alone, in the absence of any other tagged protein; Superdex 200 (10/300), 50 mM Tris–HCl with 150 mM NaCl, pH 7.5
[3] = target: PTDHA2 (phosphite dehydrogenase with a C-terminal RIAD–RIAD tag); assay: as above

conversion of 5.0 mM bicyclo[3.2.0]hept-2-en-6-one after 24 h by the mixture of the two tagged enzymes [1]	Substance	also measured
78%	PAMOA (phenylacetone monooxygenase with a C-terminal RIAD tag) (enzyme)	
	PTDHA (phosphite dehydrogenase with a C-terminal RIAD tag) (enzyme)	stoichiometry N [2]: 2
78%	PAMOA2 (phenylacetone monooxygenase with a C-terminal RIAD–RIAD tag) (enzyme)	
	PTDHA2 (phosphite dehydrogenase with a C-terminal RIAD–RIAD tag) (enzyme)	stoichiometry N [3]: 2
